Data on 12 molecules can be found in paper PMC11102832.

Assay [1] has as its target AM2 receptor (CLR-RAMP3) (human) (UniProt Q16602).
Assay [2] has as its target AM1 receptor (CLR-RAMP2) (human) (UniProt Q16602).
In assay [3] the target is CGRP receptor (CLR-RAMP1) (human) (UniProt Q16602).
In assay [4] the target is AM2 receptor (CLR-RAMP3) (human) (UniProt Q16602). This is another data set of the same source.
In assay [5] the target is AM1 receptor (CLR-RAMP2) (human) (UniProt Q16602). This is another data set of the same source.
Assay [6] concerns the target CGRP receptor (CLR-RAMP1) (human) (UniProt Q16602). This is another data set of the same source.
Assay [7] concerns the target AM2 receptor (CLR-RAMP3) (human) (UniProt Q16602). The source holds these as a separate data set.
The target of assay [8] is AM1 receptor (CLR-RAMP2) (human) (UniProt Q16602). The source holds these as a separate data set.
Assay [9] addresses CGRP receptor (CLR-RAMP1) (human) (UniProt Q16602). The source holds these as a separate data set.
Assay [10] has as its target calcitonin receptor (CTR) (human).
For assay [11], the target named is amylin1 receptor (CTR-RAMP1) (human) (UniProt O60894).

Where two headings read alike, the source gives them in different places.

Sequence of AM2 receptor (CLR-RAMP3) (human) (Q16602 23-461, chain 1 of 2): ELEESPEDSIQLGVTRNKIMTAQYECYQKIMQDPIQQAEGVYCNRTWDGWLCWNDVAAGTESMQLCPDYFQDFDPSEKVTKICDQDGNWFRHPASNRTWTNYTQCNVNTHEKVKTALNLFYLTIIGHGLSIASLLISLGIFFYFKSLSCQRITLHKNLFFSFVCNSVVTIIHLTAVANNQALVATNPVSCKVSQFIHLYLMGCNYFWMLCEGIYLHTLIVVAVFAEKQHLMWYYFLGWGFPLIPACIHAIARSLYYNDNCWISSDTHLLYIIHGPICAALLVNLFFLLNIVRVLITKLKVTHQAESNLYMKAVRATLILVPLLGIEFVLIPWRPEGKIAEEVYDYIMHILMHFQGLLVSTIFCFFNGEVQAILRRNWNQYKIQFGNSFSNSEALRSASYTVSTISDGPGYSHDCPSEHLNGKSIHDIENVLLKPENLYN
Sequence of AM2 receptor (CLR-RAMP3) (human) (O60896 24-148, chain 2 of 2, further chain): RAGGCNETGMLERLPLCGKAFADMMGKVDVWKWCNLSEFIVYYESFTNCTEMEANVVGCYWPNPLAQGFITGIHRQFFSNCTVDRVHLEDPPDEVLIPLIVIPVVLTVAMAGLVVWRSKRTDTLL
Sequence of CGRP receptor (CLR-RAMP1) (human) (Q16602 23-461, chain 1 of 2): as the sequence (Q16602 23-461, chain 1 of 2) above
Sequence of CGRP receptor (CLR-RAMP1) (human) (O60894 27-148, chain 2 of 2, further chain): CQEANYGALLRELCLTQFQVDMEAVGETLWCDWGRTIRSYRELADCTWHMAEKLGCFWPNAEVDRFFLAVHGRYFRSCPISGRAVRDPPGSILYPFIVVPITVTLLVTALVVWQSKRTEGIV
Sequence of AM1 receptor (CLR-RAMP2) (human) (Q16602 23-461, chain 1 of 2): as the sequence (Q16602 23-461, chain 1 of 2) above
Sequence of AM1 receptor (CLR-RAMP2) (human) (O60895 43-175, chain 2 of 2, further chain): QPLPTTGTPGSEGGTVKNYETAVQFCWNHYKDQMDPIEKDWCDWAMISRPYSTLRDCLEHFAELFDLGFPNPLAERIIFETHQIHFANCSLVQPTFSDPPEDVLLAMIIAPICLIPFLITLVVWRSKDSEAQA
Sequence of calcitonin receptor (CTR) (human) (P30988 25-474): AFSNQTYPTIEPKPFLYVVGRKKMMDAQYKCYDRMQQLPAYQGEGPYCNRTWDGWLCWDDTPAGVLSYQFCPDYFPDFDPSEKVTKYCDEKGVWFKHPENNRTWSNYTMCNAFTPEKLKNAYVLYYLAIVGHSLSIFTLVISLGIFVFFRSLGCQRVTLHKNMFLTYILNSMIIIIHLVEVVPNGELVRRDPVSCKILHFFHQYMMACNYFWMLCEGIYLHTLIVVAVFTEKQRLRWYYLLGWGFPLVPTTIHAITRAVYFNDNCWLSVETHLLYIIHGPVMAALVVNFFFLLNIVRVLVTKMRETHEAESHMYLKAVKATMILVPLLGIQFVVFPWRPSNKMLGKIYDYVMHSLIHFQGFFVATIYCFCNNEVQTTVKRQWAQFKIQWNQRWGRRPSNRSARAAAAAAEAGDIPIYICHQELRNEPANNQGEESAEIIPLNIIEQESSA
Sequence of amylin1 receptor (CTR-RAMP1) (human) (O60894 whole entry, looked up): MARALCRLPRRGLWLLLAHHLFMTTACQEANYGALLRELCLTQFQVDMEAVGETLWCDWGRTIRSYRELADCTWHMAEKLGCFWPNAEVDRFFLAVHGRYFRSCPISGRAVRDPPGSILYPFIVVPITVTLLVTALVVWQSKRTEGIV
Sequence of βCGRP(1-37) (P10092 82-118): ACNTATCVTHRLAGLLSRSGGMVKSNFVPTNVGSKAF

On to “AM2(8-22)-AM(29-38)-AM2(34-47) (peptide)”, for which the figures for the pEC50 of cAMP signaling, end-point concentration-response (CAMYEL BRET, COS-7) in assay [1], in assay [2] and in [3] were 8.72, 7.34 and 8.09, respectively.
Consider AM2/IMD(1-47) (peptide), for which the pEC50 of cAMP signaling, end-point concentration-response (CAMYEL BRET, COS-7) in [4] was found to be 8.9; in [5], 7.66; in [6] it was 7.81.
Turning to AM2/IMD(8-47) (peptide), the pEC50 of cAMP signaling, end-point concentration-response (CAMYEL BRET, COS-7) in assay [4] stood at 9.33; in assay [5], 8.24; in [6], 8.86; in assay [7], 9.27; in assay [8], 8.51; in [9], 9.17.
As for AM2/IMD(8-47) [R23K/R33K] (peptide), the pEC50 of cAMP signaling, end-point concentration-response (CAMYEL BRET, COS-7) in [7] was found to be 8.74; in assay [8] it was 7.59; in assay [9], 8.22.
For AM2/IMD(8-47) [R23K] (peptide) the same measures were 9, 7.62 and 8.51.
For AM2/IMD(8-47) [R23Q/R33K] (peptide) the same measures were 7.75, 6.9 and 7.5.
The corresponding values for AM2/IMD(8-47) [R33K] (peptide) are 9.01, 7.8 and 8.54.
Turning to AM2/IMD-53 (peptide), the values for the pEC50 of cAMP signaling, end-point concentration-response (CAMYEL BRET, COS-7) in assay [4], in [5] and in assay [6] were 8.84, 7.94 and 8.36, respectively.
As to “AM(13-38)-AM2(23-33)-AM(39-52) (peptide)”, the pEC50 of cAMP signaling, end-point concentration-response (CAMYEL BRET, COS-7) in [1] was found to be 8.42; in assay [2] it was 8.26; in [3] it was 8.08.
As for AM(13-52) (peptide), the pEC50 of cAMP signaling, end-point concentration-response (CAMYEL BRET, COS-7) is 9.63 in assay [4], 9.54 in assay [5], 9.48 in assay [7] and 9.52 in assay [8].
As for “βCGRP(1-37) (from UniProt P10092 82-118) (peptide)”, in assay [10], the pEC50 of cAMP signaling, end-point concentration-response (CAMYEL BRET, COS-7) turned out to be 7.79.
For KCNTATCATQRLANFLVRSSNNLGPVLPPTNVGSNTY [rat Amylin(1-37)], the results for the pEC50 of cAMP signaling, end-point concentration-response (CAMYEL BRET, COS-7) in assay [10] and in [11] were 7.63 and 9.72, respectively.
